According to patent publication US20200199234A1 (published 2020):
Where a chain is given by its changes, count along the chain named. One block for each binder: values may come before it.

How the values were obtained:
[1] = molecular target: T1, human HER3 on T-47D cells (human, UniProt P21860 20-1342); experiment: flow cytometry
T1 construct: also called ErbB3

N(A2B2)A-avi-His [2] = molecular target: T2, N(A2B2)A-avi-His (human, biotinylated avi-tag); experiment: SPR ProteOn, purified Fab
T2 construct: also called biotinylated N(A2B2)A-avi-His
T2 chain: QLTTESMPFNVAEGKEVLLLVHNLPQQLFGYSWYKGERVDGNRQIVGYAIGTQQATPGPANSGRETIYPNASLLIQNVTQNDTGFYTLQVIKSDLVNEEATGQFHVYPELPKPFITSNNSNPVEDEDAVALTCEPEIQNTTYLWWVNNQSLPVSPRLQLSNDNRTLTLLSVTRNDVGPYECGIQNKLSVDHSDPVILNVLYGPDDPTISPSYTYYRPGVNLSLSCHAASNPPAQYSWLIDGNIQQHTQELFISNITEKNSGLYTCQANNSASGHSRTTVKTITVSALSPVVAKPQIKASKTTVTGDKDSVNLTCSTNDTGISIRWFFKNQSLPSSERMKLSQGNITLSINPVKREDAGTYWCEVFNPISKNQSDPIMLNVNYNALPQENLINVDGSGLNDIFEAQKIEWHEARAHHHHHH

[3] = molecular target: T3, huCD28-Fc, dimeric human CD28 extracellular domain fused to human IgG1 Fc (knob/hole, PG-LALA), monovalent … (human, UniProt P10747 19-152, biotin on C-terminal avi tag); experiment: from SPR KD values
T3 construct: also called biotinylated huCD28-Fc antigen; not shown: human IgG1 Fc fragment with hole and PG-LALA mutations; human IgG1 Fc fragment with knob and PG-LALA mutations

[4] = molecular target: human CD28 expressed on cells (CHO-k1 stably overexpressing human CD28; T cells in functional assays) (human, UniProt P10747 19-220); experiment: cell-based or functional assay
[5] = molecular target: T4, Hu N(A2-B2)A-avi-His, chimeric CEACAM1 protein with CEACAM5 domains A2 and B2 (human, biotinylated avi-tag (Example 2.2)); experiment: SPR ProteOn, biotinylated antigen on NLC chip
T4 construct: also called hu N(A2-B2)A-avi-His B; human CEA (A2 domain)
T4 chain: T2 chain

N(A2B2)A-avi-His [6] = molecular target: T2, N(A2B2)A-avi-His; experiment: SPR ProteOn, purified bispecific IgG
[7] = molecular target: T5, human CEA (CEACAM5) expressed on cells (MKN45; MV3 engineered to express human CEACAM5) (human, UniProt P06731 35-685); experiment: flow cytometry on MV3 cells expressing CEA
T5 sequence: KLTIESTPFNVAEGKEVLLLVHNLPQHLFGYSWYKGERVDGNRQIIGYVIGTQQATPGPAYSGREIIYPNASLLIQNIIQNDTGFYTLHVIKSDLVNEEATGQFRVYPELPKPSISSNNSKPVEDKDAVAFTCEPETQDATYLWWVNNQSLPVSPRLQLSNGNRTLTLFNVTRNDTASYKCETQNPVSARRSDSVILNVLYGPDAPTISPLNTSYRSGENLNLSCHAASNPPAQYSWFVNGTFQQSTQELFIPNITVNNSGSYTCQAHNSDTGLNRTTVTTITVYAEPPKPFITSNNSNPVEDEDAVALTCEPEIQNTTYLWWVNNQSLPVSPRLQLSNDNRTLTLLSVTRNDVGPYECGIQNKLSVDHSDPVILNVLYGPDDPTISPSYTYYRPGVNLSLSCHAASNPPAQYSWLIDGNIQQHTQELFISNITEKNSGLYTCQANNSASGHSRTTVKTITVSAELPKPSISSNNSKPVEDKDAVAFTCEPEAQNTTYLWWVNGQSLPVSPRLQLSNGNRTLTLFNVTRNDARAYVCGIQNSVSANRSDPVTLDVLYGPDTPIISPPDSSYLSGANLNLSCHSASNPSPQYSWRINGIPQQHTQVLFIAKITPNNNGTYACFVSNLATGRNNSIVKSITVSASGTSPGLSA

fold reduction of affinity compared to the parental CD28 clone [3]: ~20 fold
B3: FAP (4B9) - CD28 (CD28(SA)_Variant 8) 1+1 (bispecific antibody, human IgG1, kappa, L234A L235A)
heavy 1: EIVLTQSPGTLSLSPGERATLSCRASQSVTSSYLAWYQQKPGQAPRLLINVGSRRATGIPDRFSGSGSGTDFTLTISRLEPEDFAVYYCQQGIMLPPTFGQGTKVEIKSSASTKGPSVFPLAPSSKSTSGGTAALGCLVKDYFPEPVTVSWNSGALTSGVHTFPAVLQSSGLYSLSSVVTVPSSSLGTQTYICNVNHKPSNTKVDKKVEPKSCDKTHTCPPCPAPEAAGGPSVFLFPPKPKDTLMISRTPEVTCVVVDVSHEDPEVKFNWYVDGVEVHNAKTKPREEQYNSTYRVVSVLTVLHQDWLNGKEYKCKVSNKALGAPIEKTISKAKGQPREPQVCTLPPSRDELTKNQVSLSCAVKGFYPSDIAVEWESNGQPENNYKTTPPVLDSDGSFFLVSKLTVDKSRWQQGNVFSCSVMHEALHNHYTQKSLSLSP
light 1: EVQLLESGGGLVQPGGSLRLSCAASGFTFSSYAMSWVRQAPGKGLEWVSAIIGSGASTYYADSVKGRFTISRDNSKNTLYLQMNSLRAEDTAVYYCAKGWFGGFNYWGQGTLVTVSSASVAAPSVFIFPPSDEQLKSGTASVVCLLNNFYPREAKVQWKVDNALQSGNSQESVTEQDSKDSTYSLSSTLTLSKADYEKHKVYACEVTHQGLSSPVTKSFNRGEC
heavy 2: not shown
light 2: not shown
notes: also called P1AE3131
EC50 killing (nM), TCB-mediated killing of MV3 target cells [4]: 2.33 nM

Kd [5]: 0.29 nM
B4: Molecule M: CEA-CD28(SA) 1+1 format (bispecific antibody, human IgG1, kappa, L234A L235A)
light 1: not shown
heavy 1: not shown
heavy 2: QAVLTQPASLSASPGASASLTCTLRRGINVGAYSIYWYQQKPGSPPQYLLRYKSDSDKQQGSGVSSRFSASKDASANAGILLISGLQSEDEADYYCMIWHSGASAVFGGGTKLTVLSSASTKGPSVFPLAPSSKSTSGGTAALGCLVKDYFPEPVTVSWNSGALTSGVHTFPAVLQSSGLYSLSSVVTVPSSSLGTQTYICNVNHKPSNTKVDKKVEPKSCDKTHTCPPCPAPEAAGGPSVFLFPPKPKDTLMISRTPEVTCVVVDVSHEDPEVKFNWYVDGVEVHNAKTKPREEQYNSTYRVVSVLTVLHQDWLNGKEYKCKVSNKALGAPIEKTISKAKGQPREPQVCTLPPSRDELTKNQVSLSCAVKGFYPSDIAVEWESNGQPENNYKTTPPVLDSDGSFFLVSKLTVDKSRWQQGNVFSCSVMHEALHNHYTQKSLSLSP
light 2: EVQLVESGGGLVQPGRSLRLSCAASGFTVSSYWMHWVRQAPGKGLEWVGFIRNKANGGTTEYAASVKGRFTISRDDSKNTLYLQMNSLRAEDTAVYYCARDRGLRFYFDYWGQGTTVTVSSASVAAPSVFIFPPSDEQLKSGTASVVCLLNNFYPREAKVQWKVDNALQSGNSQESVTEQDSKDSTYSLSSTLTLSKADYEKHKVYACEVTHQGLSSPVTKSFNRGEC
notes: anti-CEA arm is Medi-565; also called P1AE3127

EC50 [7]: 4.1 nM
B6: Molecule 11R: CEA (P002.139)-CD28 (SA_Variant 15) 1+1 format (bispecific antibody)
heavy 1: EIVLTQSPATLSLSPGERATLSCHASSSVTYIHWYQQKPGQAPRSWIYATSNLASGIPARFSGSGSGTDFTLTISSLEPEDFAVYYCQHWSSKPPTFGQGTKLEIKSSASTKGPSVFPLAPSSKSTSGGTAALGCLVKDYFPEPVTVSWNSGALTSGVHTFPAVLQSSGLYSLSSVVTVPSSSLGTQTYICNVNHKPSNTKVDKKVEPKSCDKTHTCPPCPAPEAAGGPSVFLFPPKPKDTLMISRTPEVTCVVVDVSHEDPEVKFNWYVDGVEVHNAKTKPREEQYNSTYRVVSVLTVLHQDWLNGKEYKCKVSNKALGAPIEKTISKAKGQPREPQVCTLPPSRDELTKNQVSLSCAVKGFYPSDIAVEWESNGQPENNYKTTPPVLDSDGSFFLVSKLTVDKSRWQQGNVFSCSVMHEALHNHYTQKSLSLSP
light 1: EVQLLESGGGLVQPGGSLRLSCAASGFYFTDYAMNWVRQAPGKGLEWLGVISNKANAYTTEYSASVKGRFTISRDKSKNTLYLQMNSLRAEDTATYYCTRDRGLRFYFDYWGQGTTVTVSSASVAAPSVFIFPPSDEQLKSGTASVVCLLNNFYPREAKVQWKVDNALQSGNSQESVTEQDSKDSTYSLSSTLTLSKADYEKHKVYACEVTHQGLSSPVTKSFNRGEC
heavy 2: not shown
light 2: not shown
notes: also called P1AE8371

Second part, the binder before the results:

B1: Molecule 14B: HER3(lumretuzumab)-CD28 (SA_Variant 15) 1+1 format (bispecific antibody, human IgG1, kappa, L234A L235A)
heavy 1: not shown
light 1: not shown
heavy 2: DIVMTQSPDSLAVSLGERATINCKSSQSVLNSGNQKNYLTWYQQKPGQPPKLLIYWASTRESGVPDRFSGSGSGTDFTLTISSLQAEDVAVYYCQSDYSYPYTFGQGTKLEIKSSASTKGPSVFPLAPSSKSTSGGTAALGCLVKDYFPEPVTVSWNSGALTSGVHTFPAVLQSSGLYSLSSVVTVPSSSLGTQTYICNVNHKPSNTKVDKKVEPKSCDKTHTCPPCPAPEAAGGPSVFLFPPKPKDTLMISRTPEVTCVVVDVSHEDPEVKFNWYVDGVEVHNAKTKPREEQYNSTYRVVSVLTVLHQDWLNGKEYKCKVSNKALGAPIEKTISKAKGQPREPQVCTLPPSRDELTKNQVSLSCAVKGFYPSDIAVEWESNGQPENNYKTTPPVLDSDGSFFLVSKLTVDKSRWQQGNVFSCSVMHEALHNHYTQKSLSLSP
light 2: QVQLVQSGAEVKKPGASVKVSCKASGYTFRSSYISWVRQAPGQGLEWMGWIYAGTGSPSYNQKLQGRVTMTTDTSTSTAYMELRSLRSDDTAVYYCARHRDYYSNSLTYWGQGTLVTVSSASVAAPSVFIFPPSDEQLKSGTASVVCLLNNFYPREAKVQWKVDNALQSGNSQESVTEQDSKDSTYSLSSTLTLSKADYEKHKVYACEVTHQGLSSPVTKSFNRGEC
notes: also called P1AF0151; HER3-CD28
binding result [1]: binds

B2: P005.102 Fab fragment (Fab, V domains shown)
VH: EVQLLESGGGLVQPGGSLRLSCAASGFTFTDYYMNWVRQAPGKGLEWLGFIGNKANAYTTEYSASVKGRFTISRDKSKNTLYLQMNSLRAEDTATYYCTRDRGIRFQFDYWGQGTTVTVSS
VL: EIVLTQSPATLSLSPGERATLSCRASSSVTYIHWYQQKPGQAPRSWIYATSNLASGIPARFSGSGSGTDFTLTISSLEPEDFAVYYCQHWSSKSPTFGQGTKLEIK
koff (N(A2B2)A-avi-His [2]): 0.000392 s⁻¹

B5: CEA(P006.038-combo1)-CD28(SA_Variant 15) bispecific 1+1 IgG (bispecific antibody)
heavy 1: B6 heavy 1 with H24R, K93V
light 1: B6 light 1 with L104I, Y107G
heavy 2: not shown
light 2: not shown
koff (N(A2B2)A-avi-His [6]): 7.99e-05 s⁻¹
